Reference: publication PMC6910952 (Nature Communications, 2019)
No end group written: not given here.

T1: His6-yNpl4^113–580 (Saccharomyces cerevisiae, UniProt P33755 113-580)
T1 construct: codon-optimized synthetic cDNA; also called WT; WT #1; source: E. coli Rosetta (DE3), purified (Ni-NTA, Resource Q); also in lysate, mixed with cells expressing GST-yUfd1 for co-purification; not shown: His6, N-terminal, kept
T1 sequence (looked up): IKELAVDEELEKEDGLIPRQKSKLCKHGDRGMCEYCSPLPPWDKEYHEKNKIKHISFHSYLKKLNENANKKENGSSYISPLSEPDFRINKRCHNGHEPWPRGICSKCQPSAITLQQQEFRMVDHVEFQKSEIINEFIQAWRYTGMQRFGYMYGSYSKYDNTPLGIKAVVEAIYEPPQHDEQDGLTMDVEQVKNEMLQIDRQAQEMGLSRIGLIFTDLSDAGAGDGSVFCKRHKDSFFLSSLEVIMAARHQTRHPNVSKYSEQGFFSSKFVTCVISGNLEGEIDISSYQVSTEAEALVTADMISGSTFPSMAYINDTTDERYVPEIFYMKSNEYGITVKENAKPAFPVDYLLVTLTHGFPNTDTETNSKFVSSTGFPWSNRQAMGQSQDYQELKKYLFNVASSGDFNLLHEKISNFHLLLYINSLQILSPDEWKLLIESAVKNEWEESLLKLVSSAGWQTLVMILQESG


Target: T1, His6-yNpl4^113–580
Assay: fluorescence polarisation; fluorescence anisotropy; 1 nM FlAsH-labeled His6-SUMO-yUfd1 peptide, His6-yNpl4^113–580 in two-fold dilution series; 25 °C; 50 mM Tris-HCl pH 8.0, 100 mM NaCl, 5 mM β-mercaptoethanol, 0.1 g/L BSA
Details: both partners purified

| Binder | Kd [µM] |
| --- | --- |
| {His6-SUMO}-EPAKLDLPAGQLFFGFPMGWCCPGCC (peptide, UniProt P53044 288-305, looked up, cysteine pairing not given here; also: FlAsH label bound to CCPGCC motif, Ufd1 of Saccharomyces cerevisiae (yUfd1), residues 288-305 (NBM); also called yUfd1 E296A; source: E. coli Rosetta (DE3) (pCold-SUMO), purified (Ni-NTA, Resource Q), labeled with FlAsH-EDT2; not shown: His6, N-terminal, kept; SUMO, N-terminal, kept) [FlAsH-labeled His6-SUMO-yUfd1^288–305-GWCCPGCC E296A] | 0.437 |
| {His6-SUMO}-EPAKLDLPEGQLFFGAPMGWCCPGCC (peptide, UniProt P53044 288-305, looked up, cysteine pairing not given here; also: FlAsH label bound to CCPGCC motif, Ufd1 of Saccharomyces cerevisiae (yUfd1), residues 288-305 (NBM); also called yUfd1 F303A; source: E. coli Rosetta (DE3) (pCold-SUMO), purified (Ni-NTA, Resource Q), labeled with FlAsH-EDT2; not shown: His6, N-terminal, kept; SUMO, N-terminal, kept) [FlAsH-labeled His6-SUMO-yUfd1^288–305-GWCCPGCC F303A] | 1.77 |
| {His6-SUMO}-EPAKLDAPEGQLFFGFPMGWCCPGCC (peptide, UniProt P53044 288-305, looked up, cysteine pairing not given here; also: FlAsH label bound to CCPGCC motif, Ufd1 of Saccharomyces cerevisiae (yUfd1), residues 288-305 (NBM); also called yUfd1 L294A; source: E. coli Rosetta (DE3) (pCold-SUMO), purified (Ni-NTA, Resource Q), labeled with FlAsH-EDT2; not shown: His6, N-terminal, kept; SUMO, N-terminal, kept) [FlAsH-labeled His6-SUMO-yUfd1^288–305-GWCCPGCC L294A] | 0.527 |
| {His6-SUMO}-EPAKLDLPERQLFFGFPMGWCCPGCC (peptide, UniProt P53044 288-305, looked up, cysteine pairing not given here; also: FlAsH label bound to CCPGCC motif, Ufd1 of Saccharomyces cerevisiae (yUfd1), residues 288-305 (NBM); also called yUfd1 G297R; source: E. coli Rosetta (DE3) (pCold-SUMO), purified (Ni-NTA, Resource Q), labeled with FlAsH-EDT2; not shown: His6, N-terminal, kept; SUMO, N-terminal, kept) [FlAsH-labeled His6-SUMO-yUfd1^288–305-GWCCPGCC G297R] | 20.9 |
| {His6-SUMO}-EPAKLDLPEGQAFFGFPMGWCCPGCC (peptide, UniProt P53044 288-305, looked up, cysteine pairing not given here; also: FlAsH label bound to CCPGCC motif, Ufd1 of Saccharomyces cerevisiae (yUfd1), residues 288-305 (NBM); also called yUfd1 L299A; source: E. coli Rosetta (DE3) (pCold-SUMO), purified (Ni-NTA, Resource Q), labeled with FlAsH-EDT2; not shown: His6, N-terminal, kept; SUMO, N-terminal, kept) [FlAsH-labeled His6-SUMO-yUfd1^288–305-GWCCPGCC L299A] | 12.7 |
| {His6-SUMO}-EPAKADLPEGQLFFGFPMGWCCPGCC (peptide, UniProt P53044 288-305, looked up, cysteine pairing not given here; also: FlAsH label bound to CCPGCC motif, Ufd1 of Saccharomyces cerevisiae (yUfd1), residues 288-305 (NBM); also called yUfd1 L292A; source: E. coli Rosetta (DE3) (pCold-SUMO), purified (Ni-NTA, Resource Q), labeled with FlAsH-EDT2; not shown: His6, N-terminal, kept; SUMO, N-terminal, kept) [FlAsH-labeled His6-SUMO-yUfd1^288–305-GWCCPGCC L292A] | 5.29 |
| {His6-SUMO}-EPAKLDLPEGQLFAGFPMGWCCPGCC (peptide, UniProt P53044 288-305, looked up, cysteine pairing not given here; also: FlAsH label bound to CCPGCC motif, Ufd1 of Saccharomyces cerevisiae (yUfd1), residues 288-305 (NBM); also called yUfd1 F301A; source: E. coli Rosetta (DE3) (pCold-SUMO), purified (Ni-NTA, Resource Q), labeled with FlAsH-EDT2; not shown: His6, N-terminal, kept; SUMO, N-terminal, kept) [FlAsH-labeled His6-SUMO-yUfd1^288–305-GWCCPGCC F301A] | 20.8 |
| {His6-SUMO}-EPAKLDLPELQLFFGFPMGWCCPGCC (peptide, UniProt P53044 288-305, looked up, cysteine pairing not given here; also: FlAsH label bound to CCPGCC motif, Ufd1 of Saccharomyces cerevisiae (yUfd1), residues 288-305 (NBM); also called yUfd1 G297L; source: E. coli Rosetta (DE3) (pCold-SUMO), purified (Ni-NTA, Resource Q), labeled with FlAsH-EDT2; not shown: His6, N-terminal, kept; SUMO, N-terminal, kept) [FlAsH-labeled His6-SUMO-yUfd1^288–305-GWCCPGCC G297L] | 0.619 |
| {His6-SUMO}-EPAKLDLPEYQLFFGFPMGWCCPGCC (peptide, UniProt P53044 288-305, looked up, cysteine pairing not given here; also: FlAsH label bound to CCPGCC motif, Ufd1 of Saccharomyces cerevisiae (yUfd1), residues 288-305 (NBM); also called yUfd1 G297Y; source: E. coli Rosetta (DE3) (pCold-SUMO), purified (Ni-NTA, Resource Q), labeled with FlAsH-EDT2; not shown: His6, N-terminal, kept; SUMO, N-terminal, kept) [FlAsH-labeled His6-SUMO-yUfd1^288–305-GWCCPGCC G297Y] | 2.14 |
| {His6-SUMO}-EPAKLDLPEGQLFFGFPAGWCCPGCC (peptide, UniProt P53044 288-305, looked up, cysteine pairing not given here; also: FlAsH label bound to CCPGCC motif, Ufd1 of Saccharomyces cerevisiae (yUfd1), residues 288-305 (NBM); also called yUfd1 M305A; source: E. coli Rosetta (DE3) (pCold-SUMO), purified (Ni-NTA, Resource Q), labeled with FlAsH-EDT2; not shown: His6, N-terminal, kept; SUMO, N-terminal, kept) [FlAsH-labeled His6-SUMO-yUfd1^288–305-GWCCPGCC M305A] | 0.261 |

Target: T2, M1-Ub4 (UniProt P0CG48 1-76; P0CG48 1-76; P0CG48 1-76; P0CG48 1-76)
T2 construct: ubiquitin (Ub), first unit; ubiquitin (Ub), second unit; ubiquitin (Ub), third unit; ubiquitin (Ub), fourth unit
T2 sequence (P0CG48 1-304, one chain of several): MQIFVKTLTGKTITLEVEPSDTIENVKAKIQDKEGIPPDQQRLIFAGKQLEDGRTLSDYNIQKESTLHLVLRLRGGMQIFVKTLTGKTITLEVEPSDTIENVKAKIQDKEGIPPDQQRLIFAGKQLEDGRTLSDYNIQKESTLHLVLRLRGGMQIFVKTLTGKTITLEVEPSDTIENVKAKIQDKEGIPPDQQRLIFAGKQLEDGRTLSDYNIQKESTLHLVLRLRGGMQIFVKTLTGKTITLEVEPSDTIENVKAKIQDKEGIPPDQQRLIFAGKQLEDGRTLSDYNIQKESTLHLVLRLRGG
Assay: SPR; Biacore T200, 25 °C; wild-type or mutant His6-yNpl4^113–580, yUfd1–His6-yNpl4^113–580 or His6-hNpl4 immobilized on a CM5 chip by amine coupling; Ub2 or Ub4 in two-fold dilution series injected 60 s at 10 μL per min in 10 mM HEPES-NaOH pH 7.5, 150 mM NaCl, 0.05% Tween-20, 0.5 g/L BSA; equilibrium Kd
Details: both partners purified

| Binder | Kd [µM] |
| --- | --- |
| His6-yNpl4^113–580 T571A (domain or fragment, Saccharomyces cerevisiae, UniProt P33755 113-580, looked up, source: E. coli Rosetta (DE3), purified (Ni-NTA, Resource Q); not shown: His6, N-terminal, kept) IKELAVDEELEKEDGLIPRQKSKLCKHGDRGMCEYCSPLPPWDKEYHEKNKIKHISFHSYLKKLNENANKKENGSSYISPLSEPDFRINKRCHNGHEPWPRGICSKCQPSAITLQQQEFRMVDHVEFQKSEIINEFIQAWRYTGMQRFGYMYGSYSKYDNTPLGIKAVVEAIYEPPQHDEQDGLTMDVEQVKNEMLQIDRQAQEMGLSRIGLIFTDLSDAGAGDGSVFCKRHKDSFFLSSLEVIMAARHQTRHPNVSKYSEQGFFSSKFVTCVISGNLEGEIDISSYQVSTEAEALVTADMISGSTFPSMAYINDTTDERYVPEIFYMKSNEYGITVKENAKPAFPVDYLLVTLTHGFPNTDTETNSKFVSSTGFPWSNRQAMGQSQDYQELKKYLFNVASSGDFNLLHEKISNFHLLLYINSLQILSPDEWKLLIESAVKNEWEESLLKLVSSAGWQALVMILQESG | 923 |
| His6-yNpl4^113–580 I575A (domain or fragment, Saccharomyces cerevisiae, UniProt P33755 113-580, looked up, source: E. coli Rosetta (DE3), purified (Ni-NTA, Resource Q); not shown: His6, N-terminal, kept) IKELAVDEELEKEDGLIPRQKSKLCKHGDRGMCEYCSPLPPWDKEYHEKNKIKHISFHSYLKKLNENANKKENGSSYISPLSEPDFRINKRCHNGHEPWPRGICSKCQPSAITLQQQEFRMVDHVEFQKSEIINEFIQAWRYTGMQRFGYMYGSYSKYDNTPLGIKAVVEAIYEPPQHDEQDGLTMDVEQVKNEMLQIDRQAQEMGLSRIGLIFTDLSDAGAGDGSVFCKRHKDSFFLSSLEVIMAARHQTRHPNVSKYSEQGFFSSKFVTCVISGNLEGEIDISSYQVSTEAEALVTADMISGSTFPSMAYINDTTDERYVPEIFYMKSNEYGITVKENAKPAFPVDYLLVTLTHGFPNTDTETNSKFVSSTGFPWSNRQAMGQSQDYQELKKYLFNVASSGDFNLLHEKISNFHLLLYINSLQILSPDEWKLLIESAVKNEWEESLLKLVSSAGWQTLVMALQESG | 837 |
| His6-yNpl4^113–580 A494F (domain or fragment, Saccharomyces cerevisiae, UniProt P33755 113-580, looked up, source: E. coli Rosetta (DE3), purified (Ni-NTA, Resource Q); not shown: His6, N-terminal, kept) IKELAVDEELEKEDGLIPRQKSKLCKHGDRGMCEYCSPLPPWDKEYHEKNKIKHISFHSYLKKLNENANKKENGSSYISPLSEPDFRINKRCHNGHEPWPRGICSKCQPSAITLQQQEFRMVDHVEFQKSEIINEFIQAWRYTGMQRFGYMYGSYSKYDNTPLGIKAVVEAIYEPPQHDEQDGLTMDVEQVKNEMLQIDRQAQEMGLSRIGLIFTDLSDAGAGDGSVFCKRHKDSFFLSSLEVIMAARHQTRHPNVSKYSEQGFFSSKFVTCVISGNLEGEIDISSYQVSTEAEALVTADMISGSTFPSMAYINDTTDERYVPEIFYMKSNEYGITVKENAKPAFPVDYLLVTLTHGFPNTDTETNSKFVSSTGFPWSNRQFMGQSQDYQELKKYLFNVASSGDFNLLHEKISNFHLLLYINSLQILSPDEWKLLIESAVKNEWEESLLKLVSSAGWQTLVMILQESG | 84 |
| His6-yNpl4^113–580 M574Q (domain or fragment, Saccharomyces cerevisiae, UniProt P33755 113-580, looked up, source: E. coli Rosetta (DE3), purified (Ni-NTA, Resource Q); not shown: His6, N-terminal, kept) IKELAVDEELEKEDGLIPRQKSKLCKHGDRGMCEYCSPLPPWDKEYHEKNKIKHISFHSYLKKLNENANKKENGSSYISPLSEPDFRINKRCHNGHEPWPRGICSKCQPSAITLQQQEFRMVDHVEFQKSEIINEFIQAWRYTGMQRFGYMYGSYSKYDNTPLGIKAVVEAIYEPPQHDEQDGLTMDVEQVKNEMLQIDRQAQEMGLSRIGLIFTDLSDAGAGDGSVFCKRHKDSFFLSSLEVIMAARHQTRHPNVSKYSEQGFFSSKFVTCVISGNLEGEIDISSYQVSTEAEALVTADMISGSTFPSMAYINDTTDERYVPEIFYMKSNEYGITVKENAKPAFPVDYLLVTLTHGFPNTDTETNSKFVSSTGFPWSNRQAMGQSQDYQELKKYLFNVASSGDFNLLHEKISNFHLLLYINSLQILSPDEWKLLIESAVKNEWEESLLKLVSSAGWQTLVQILQESG | 634 |
| His6-yNpl4^113–580 M574A (domain or fragment, Saccharomyces cerevisiae, UniProt P33755 113-580, looked up, source: E. coli Rosetta (DE3), purified (Ni-NTA, Resource Q); not shown: His6, N-terminal, kept) IKELAVDEELEKEDGLIPRQKSKLCKHGDRGMCEYCSPLPPWDKEYHEKNKIKHISFHSYLKKLNENANKKENGSSYISPLSEPDFRINKRCHNGHEPWPRGICSKCQPSAITLQQQEFRMVDHVEFQKSEIINEFIQAWRYTGMQRFGYMYGSYSKYDNTPLGIKAVVEAIYEPPQHDEQDGLTMDVEQVKNEMLQIDRQAQEMGLSRIGLIFTDLSDAGAGDGSVFCKRHKDSFFLSSLEVIMAARHQTRHPNVSKYSEQGFFSSKFVTCVISGNLEGEIDISSYQVSTEAEALVTADMISGSTFPSMAYINDTTDERYVPEIFYMKSNEYGITVKENAKPAFPVDYLLVTLTHGFPNTDTETNSKFVSSTGFPWSNRQAMGQSQDYQELKKYLFNVASSGDFNLLHEKISNFHLLLYINSLQILSPDEWKLLIESAVKNEWEESLLKLVSSAGWQTLVAILQESG | 291 |
